In patent US6426362B1, “Formulations of tocopherols and methods of making and using them” (Galileo Laboratories, Inc., priority 1999, dated 2002) one finds cell death data, which are given here for one molecule.

The assay concerns Oxidatively competent cells. Put plainly: Antimycin A-induced cell death in oxidatively competent cells, SYTOX assay after 4 hours. The conditions noted are these: lactoferrin alone at 100 μg/ml. In kind it is cell-based, rat-human hybrid (GCL1). An excerpt:
The GCL1 (WiF-B) liver cell line is a hybrid originating from the fusion of rat hepatoma cells (fao) and human fibroblasts (W138). Cassio et al. (1991) J. Cell Biol. 115:1397-1408; Shanks et al. (1994) J. Cell Science 107:813-825. […] Ihrke et al. 1993, J. Cell Biol. 123:1761-1775. At greater than 80% confluence, more than 80% of the cells participate in forming one or more phaselucent, spherical structures that are located between cells, termed bile canicular-like spaces. In contrast to the majority of cell lines maintained in culture which are fermentative, GCL1 cells, when at their maximal density and polarity, are highly oxidative (i.e., they can be readily killed by inhibitors of oxidative phosphorylation or electron transport uncouplers). […] These cells are amenable to use in high throughput screening (HTS) technology.
Energetically competent cells are seeded onto 96-well plates at 1×10^3/well or 2.5×10^3/well as passage 15. The cells are grown in DMEM with 10% FBS and 1.5 g/L sodium bicarbonate for 24 or 48 hours to reach 85% confluence. The cells are washed once with HBSS and then 100 μl of HBSS containing different concentration of AA (Sigma Chemical Co., Cat # A 8674) is added to the cells. AA is dissolved in DMSO to make a stock solution of 50 mM, then diluted with HBSS to 100, 50, 25, 12.5, 6.25, 3.125, and 1.56 μM for dose-response curves. […]

B1: lactoferrin: Bovine lactoferrin, iron-binding glycoprotein of milk (Sigma cat. # L9507 or DMV International Nutritionals) (protein, UniProt P24627 20-708, looked up)
Lactotransferrin: APRKNVRWCTISQPEWFKCRRWQWRMKKLGAPSITCVRRAFALECIRAIAEKKADAVTLDGGMVFEAGRDPYKLRPVAAEIYGTKESPQTHYYAVAVVKKGSNFQLDQLQGRKSCHTGLGRSAGWIIPMGILRPYLSWTESLEPLQGAVAKFFSASCVPCIDRQAYPNLCQLCKGEGENQCACSSREPYFGYSGAFKCLQDGAGDVAFVKETTVFENLPEKADRDQYELLCLNNSRAPVDAFKECHLAQVPSHAVVARSVDGKEDLIWKLLSKAQEKFGKNKSRSFQLFGSPPGQRDLLFKDSALGFLRIPSKVDSALYLGSRYLTTLKNLRETAEEVKARYTRVVWCAVGPEEQKKCQQWSQQSGQNVTCATASTTDDCIVLVLKGEADALNLDGGYIYTAGKCGLVPVLAENRKSSKHSSLDCVLRPTEGYLAVAVVKKANEGLTWNSLKDKKSCHTAVDRTAGWNIPMGLIVNQTGSCAFDEFFSQSCAPGADPKSRLCALCAGDDQGLDKCVPNSKEKYYGYTGAFRCLAEDVGDVAFVKNDTVWENTNGESTADWAKNLNREDFRLLCLDGTRKPVTEAQSCHLAVAPNHAVVSRSDRAAHVKQVLLHQQALFGKNGKNCPDKFCLFKSETKNLLFNDNTECLAKLGGRPTYEEYLGTEYVTAIANLKKCSTSPLLEACAFLTR
For B1, the cell death is 85.9% (Example 8, experiment with (+/−)-alpha tocopherol) and 96% (Example 8, experiment with alpha-tocopherol Type V).
